This note sets out measurements from article PMC5915351.

For the assay, the target named is BmbC-C8S/S43C, fluorescein-labelled (bottromycin precursor peptide double variant) (Streptomyces bottropensis). The assay is described as follows: fluorescence polarisation.

What is called Kd is the concentration at which binding is half-saturated. The low end stands for tighter binding, the high end for weaker binding. In turn, “RRE domain excised from BmbB (radical-SAM methyltransferase) (domain or fragment)” returned a Kd of 876 nM.

Molecule “RRE domain excised from BmbF (radical-SAM methyltransferase) (domain or fragment)” returned a Kd of 597 nM. This Kd and that of the molecule before are within 1.5-fold of each other.

B1: BmbD (YcaO protein, thiazoline-forming), maltose-binding protein fusion (enzyme)
chain: MREATATECELREVVHRSYPSERTVTVRCTVRPAEGSAQADGYGTATTEAVARAKALSEAVERLVACTPFATVARPPTACADPGTGSGPVPPFPAAGVRTAPEGCAGRVYRPLTGGGPRRVPLYWSSPWTAGAELRAGTLTAAEARLSSTVGWAVAPTPEGALRGALLELTELIDYGVFLHRRLAGPARRPSAGDRTLVVPLGGIGRTPAVLAVAYGRGRLMPATGLGCGATRGEATDRALLELAQAETMWRSNPTAEPAERFFLRRFERWPLLARCATLDFDLPDPRDPPARSGPAGGPGPYDDGPCPASPLEELEAGGIRVWADSGAVDISGPDIPRTRLCFAHVVSDPQPLLGLVRAGIPVFDTGEVRRTLDPSRRPADRPADRGGHRDRSADRGPARRGHEGRRSA
Molecule B1 came in with a Kd of over 50000 nM.

B2: BmbE (YcaO protein, macrolactamidine-forming), maltose-binding protein fusion (enzyme)
chain: MTRPADPQTAPQTEAATETDPLTAVLLDGATKEDVPPERETDIRQALASVGDWLAAEGLTADIRKYGIESAPTYEVRLSEASGALCSRSSGKGLGHRSMASALFESAEHYHLDWRRDPRASEAEFRPGREIAEQATARRSALLGRLGQIMPDAPVLTRTYRPVEEALTGRAGDGEADGPHRHPVFLRDGGYRNWPHPDDDRSFQPLWHYTSSAGYAAGATRHEALVHAVNELIERDAWSYQLARSYFGLPGEGPELRVVEHGTLPAELRELTRTVEEVRGAPVLIVDITCDTGVPAYVVCDARSREDVRLIGSGASPVRTYAVQRALLEYLQVRTMFENGPVDADTEAGQIGTALARYPRHLAAARFDIHRLPHESTAFEADDGLPAATGPERLLRHLVDRLRESGVEAHHRVLTPPGPVTVVDVVAPGLEMFDKARAGYPVLPTGRLGERLRPRGDGGGARR
In turn, B2 registered a Kd of over 50000 nM.
